Measured values as given in US20120149104A1.

What was measured:
[1] = biological target: SNAP-25 peptide comprising amino acids 134-197 of SEQ ID NO: 5 (human); assay: SPR (BIAcore 3000), peptide on CM5 chip, antibody in flow
[2] = biological target: SNAP-25 peptide comprising amino acids 134-206 of SEQ ID NO: 5 (human); assay: as above

Row | Kd [1] [nM] | koff [1] [s⁻¹] | kon [1] [M⁻¹ s⁻¹] | Kd [2] [nM] | koff [2] [s⁻¹] | kon [2] [M⁻¹ s⁻¹] | Substance
1 | 0.497 | 0.000882 | 1.78e+06 | 19800 | 0.00607 | 306 | MC-6050 mouse α-SNAP-25 monoclonal antibody (Research & Diagnostic Antibodies)
2 | 0.508 | 0.00118 | 2.32e+06 | 240 | 2.56e-05 | – | MC-6053 mouse α-SNAP-25 monoclonal antibody (Research & Diagnostic Antibodies)
